Results on 6 molecules are retold here after publication PMC3205435 (Journal of molecular recognition : JMR, 2011).

Read-outs that look alike come from different tables or passages of the source.

Series [1] deals with the molecule itself. The series can be described thus: SEC-MALS.
For series [2], the target named is T1, ERα DB domain (DNA-binding domain) (human, UniProt P03372 176-250). Briefly: ITC. Background: In ITC the heat of successive injections is recorded.
For series [3], the target named is T1, ERα DB domain (DNA-binding domain). Briefly: ITC. This is another data set of the same source.

B1: DB domain of ERα pre-treated with EDTA to strip divalent zinc ions (metal-free DB domain) (domain or fragment, human, UniProt P03372 176-250, looked up)
chain: MESAKETRYCAVCNDYASGYHYGVWSCEGCKAFFKRSIQGHNDYMCPATNQCTIDKNRRKSCQACRLRKCYEVGM
Broadly, the stoichiometry N is a count of units in the complex or per binding partner. Turning to B1, in series [1], the “stoichiometry N” value worked out at 2.

B2: DB domain of ERα reconstituted with divalent ions of zinc (domain or fragment, human, UniProt P03372 176-250, looked up)
chain: B1 chain
Take B2: the “stoichiometry N” value in series [1] turned out to be 2.

B3: DB domain of ERα reconstituted with divalent ions of cobalt (domain or fragment, human, UniProt P03372 176-250, looked up)
chain: B1 chain
As to B3, the “stoichiometry N” value in series [1] was 2.

B4: DB domain of ERα reconstituted with divalent ions of cadmium (domain or fragment, human, UniProt P03372 176-250, looked up)
chain: B1 chain
On to B4, for which the “stoichiometry N” value in series [1] is 2.

B5: DB domain of ERα reconstituted with divalent ions of mercury (domain or fragment, human, UniProt P03372 176-250, looked up)
chain: B1 chain
In the case of B5, the “stoichiometry N” value in series [1] worked out at 2.

B6: ERE duplex (dsDNA)
DNA 1: CCCAGGTCACAGTGACCTGCG
DNA 2: CGCAGGTCACTGTGACCTGGG
By Kd is commonly meant the constant that tells how readily two partners part at equilibrium. Regarding B6, the Kd was found to be 68 ± 8 nM in series [2] and 81 ± 2 nM in series [3].
